Measurements reported in the domain aggregation screens of Martell et al. (2025).

Assay: soluble fraction after stress (log2 fold change); higher = more stays soluble; pooled small domains, quantitative proteomics
Conditions: stress: 75 degC
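Note: 20 min heating vs room temperature control held 20 min.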

Sequence	soluble fraction (log2)
HMFYWTDLIGLDVINTADERLGKVVGLIETGANAVLRVMGDDQVERLLPFGSAVVLTVEKEAGQIRVEW	-2.11
HMGAARVTPLYNLRLREGPSTATARLDVVPRGTTLEVRAWDETGDWAQVEYRGQIGWIAAWLAEVEGEAP	-0.69
HMGADSFTGYTPIHKIDNPSDGINDGASYVVYFQKDGTDPTEFYKAVNANASTLAQLTSGTEYDLASSKKL	0.56
HMGAEIRDKVRAALAGLNPRAAEIFVMRYFDGYGNREIARLLNTSWSTIAVTLHRTRAKLQKELK	-0.0467
HMGAGDKQAQQASLMQIIALQKEGMALGLVEPKHLYHSFSKMIENAGFKDVQSFAVDPSTQQ	-0.0432
HMGAGEQMLPKVMFAEGDRVVHKVFGEGTVVTVDRPAQTYDIQFDKLRGTRRIMFRAELEGI	-0.693
HMGAGLDDLVRKSLHNAGLKADDNVVSWISGNLGSDRMVSRMELEKLVLFVAGQSEITLEDAQAVIGD	-0.524
HMGAGLKIGNDHEYANYLEYKVSVEKYAPGAILGEIKQKGIQFNTTISKTTFYRYITDGVFLTITNADLPV	0.374
HMGALTGQERRAEIMNILRQSTMPLSGAALGKQLGVSRQVVVQDIALLRQSGEEIYATNRGYVTG	-0.417
HMGAQPLIEPLSERELEVLALIAEGLTNAEIGRRLFIATGTVKRHVNTIYGKLDVHGRIEAIARARDLHLI	-1.25
HMGAQRDFELQLIDVIRQNPGLTYKAYGEKLSVSQATVKRLVAKLKETGSIRREGSQRKGTWIITDD	-1.49
HMGARWPIQDRPLTATEAAAVRRMYAGGLPHGRSKNSVITEVWGDLSNKPKRLDWLNQALEGGA	0.0155
HMGASGVEVPDVAGMSTAQAVSSLEQKGFVVNRTESYDAGVEKGNVISQSPEGGTKAPNGSAVTIRISQGA	0.831
HMGASIQITVNNTPVMLKNKTHYTLVDVLDFYPFDLSKMGGTELYTAINGVKSGFTDPVHANDSIEIYWI	-2.49
HMGASSLVGRSARVLQAVTDSDGRIKLAGETWSARLAAGATSTVGPGEEVRVIAIHGATAIVAPV	-0.581
HMGASVGEVESVKTASEIYTAAAGKIVAVNDAVAKDPSLVNSDPYGNGWLVKLEIADLSAINA	0.0161
HMGAVDIATARQLISEIGLPIMLKAEGGGGGRGIFAIHNEAELEDAFFKASTMAQASFGNPRLFVEKF	-0.441
HMGAVFEFIMEEEEPERIDKLLSSALPDLSRSYLQKLVKEGAVLVNKKEVKPNHKVNPGDVVEISVPEPE	0.448
HMGAVGISQKVTSLETAVLGKNFAKDPLIDRVARLEQTVLPKQAEANASLSLPERVSKLLEKVPIAAG	0.109
HMGAVPKNYFPAVEKGLQDSVQKGLLAGYPVVGVKAILYDGSYHPVDSSEMAFKTATIQAFKKGFMEA	0.187
HMGAYIPSYAPVDINAATHTVVRGDTVYNISKRYHVSQEDFRAWNGMADNTLSIGQVVKVKPAGYTAPK	-0.267
HMGDAVSRAYFALADDLLKGELTETVSEVLIRTRYELTSAQLQAVLHRIAQEGWAHKKPGYGWEFSAMLT	-2.01
HMGDEHYDTISAFIKSVRGSDPDAALYWLAKMILAGEDPRFILRRLIVLSGEDIGLADPQGI	-0.552
HMGDEPGAGYKWREDVLLRVMSEHGIDESARDDFVRHAVKFDDDDNLYLKKAEIIAAAEAWESSS	0.359
HMGDFLLQVDFPPALLEMLPEGKRQAAIGVLSHDPRPAYQRTPGRVYGLNFAGHNIRFAVSENLLTVLEV	-2.16
HMGDFLLTPHRGRSADFVIGNPPYIRLEDVPNDISDAYRAEYASMPGRADIHVGFYEKGLDL	-0.117

Sequence	soluble fraction (log2)
HMGDFVIVPDLIGKTIEEFDSELNELNLKYIISDSGNYNPDFKINSVLDQLPNANSKVKGGRKIYITLNAS	-1.05
HMGDGAWQQGEGGRWWYKYNNGTYPKDRVVTIGGKKYGFDSEGWMLSDTTKAFGGTTYSFAADGVATAQA	-0.0039
HMGDGYTYYYDDTVLALGFTKIGNDYYIFNTFSGKMYKDATMWVNDNPYGIKGGMHYFDASGKMFV	0.215
HMGDIFTAEDAKERIDYSGVDGIMLARGIFGNPWLIRDIREYLEYGKILHPVTQLDRVNMAIEHTRKT	0.169
HMGDIMLLFKENGKVYFLVGNQYTYVKNPTELSAIKTMMKQAGYDTHEHTNTTQVAYIKRLATE	-2.35
HMGDKVLIQTAQRLKKDLPFASIVSRFGGDEFLIFLPGISSTERVETIVKKTVFLFIAISTTLF	-0.28
HMGDLKSLIQATMDDAGISIKPDAMDYLISHLGSDRLTTRAELDKLILYAGADDKLDLDSVVELVG	0.00366
HMGDLLTVDRVAATSGLGVDTIRYYQRLGLLDPPVRHGRRALYSTAHLDRLVEIRQLADEGFSLAQIATL	-1.05
HMGDLVFDFVHGVHKAAEVEKELVMQALRFTHGNVSRAARLIGMQRSSLRYRIERYRLDAFVMEVAN	0.276
HMGDPSSERNIQKSIFILIGEKALSVQDISRSLGMPNDIIDKALISGVERNLWLSSDKGEYYL	-1.2
HMGDRRSVFEQSVLDAIKSLVKQGELATTKAISDHIGTNYQGNVSRAITALLADNKIKKLPKEGVLQPYEA	-0.0172
HMGDSFLDHKKELQSMILSRLDLSREVPDEEIKDIIDELIIAQSKKLFLSLNDRGKLRQELFYSIRK	-1.23
HMGDSVLNDKLNTLAGLDEERFKWVLASLNPNNSYSTHSDKMSALMWLVSYFNDEADLKETVPPLPI	-0.189
HMGDTIFINNNFYVKHIVEFGETIDIISKIYDVSVNKILETNETSTKLYSGQSLFIPININV	-3.47
HMGDTLEIVVIYSNKQKAEEAVNNLKGKFEDLGYNFAIITVDTSKITQLAMESSIQYIEFPKSFYFSD	-4.25
HMGDVATVKLDNNGLLNMRKSDARGADIVARIPNGTVVQVLNRETEWTQVRYDGKEGYVMSSFLQFAE	-0.047
HMGDVPESLVEKAGHSINAKIISAWGMTETGASTMTRPQDDPERAIYSDGVVLPLMDVRVVNDAGLA	-0.167
HMGDWEKALAQFAAHRLANGSTAFLDEMYPIFERILLQAALNKTGGRKIEAAELLGWGRNTLTRKLKELGF	-2.2
HMGDYERVPEYKGKLTSDLTMEDSQKFAFRFIWQNSDEDEGKIIDQDPPAGKSVAKGSEIVLYVSNG	0.474
HMGEAAIYRINILINNLNVRSGPGTLYPRLRRADFPGEYDIFEEKNGFGRISNTKSEWVSLNTQYVQRLT	-2.8
HMGEAIPVPDLKHKALTDAEHLVHELGLEIQVVDTGYVKSLPADYILGQSLAPGEKVKSGHIIYVTINSP	-1.23
HMGEGTAVGKALKFLAAQGKKFAPELLDMAGSLTGVEALSKLGDAIKGDPELSELDKRILLAELETDAV	-0.171
HMGEIHALIPGLVSRLFVKPGDRVENGQGLLILEAMKMENEIDSPISGVVGKIYIKAGDKVEKGELIMEIN	-1.45
HMGEIVVPDLIGKSLTEATRILSDSTLTVGKVNYQISSTLLPNTVLDQYPAPGNKLNSGNTVDLFITKE	0.068
HMGEKTLSEKVYDRLKELIMDGELERGTKITETSIAKMFDVSPTPVREAFRKLASDGLIEVASWKGVIVKG	-0.378
HMGELYGTDQYKDGDAQDTNIGKLLEVNIDGKWQVATTGTSRFEFAGVMDDNGHKLIMISVLPEAKTV	0.0596

Sequence	soluble fraction (log2)
HMGEPLSPDARALTNVLRHYRGWAEPGELARKSGLGSRERVLTAAQSLVNAGLADIERGMVRPTAALMEVQ	0.0619
HMGEPVASSREVAKRFGKEHKHVLAAIRQILVAENSATKFFHETAFEYRGQRFPEYLMNRDGFALLAMGF	-3.15
HMGEPVNSPMPGTILRVEVTQGAAVKEGQLLVVLEAMKMENEILAPKDGTVAQVVVQKGSHVETGSPLIVL	-0.508
HMGEQLALLERARTLLEDETLETEVQKELEMLLEDIEAARAEANATQLEDLFEELADLLFDLE	0.316
HMGEQYYVLIDNKQNGPHNINAIQKMIDQNIVNRQTLIWKKGMTDWGNIMDDKDLKEMVNKIP	0.111
HMGERMELTLDNPREAIPVLDAMGFANYQVVDKEHIHIFERLNESALVNMELAKAGIPVKGISITSE	0.0918
HMGESEWIVKWRGEKRDEERLQESELVRDDPEHRISVVRPRDDVDASAWLNRWRKSRYVQYIQPNHRVTIS	0.568
HMGESFPYVAYATDSVRLRARPSSSATILTVIRKGDAVLITGADGSYKIVEYEGRKGYVVSAFLSSQET	-2.51
HMGESVQVPSYVGMGFREAARKARARDFGVAVSDSIYVPGKPPGEIIAQDPKAESRVKEGRTIYFTVAK	-0.109
HMGETAFRYALPLDQGEALKRSHVIRQSISPDDALATRVTVLEDVLDQTLRQPVQAGEVLLEDHFTR	-0.0825
HMGETRWTYDDFGNILTEKAAPYSATEFLGKTYTYDTDNRYLKTVTDALGRTTTTLSYDKYGNPLSVMD	0.115
HMGETWYEILEISSDATTEEIRQAYFEQARQYHPDTNPGELAREWFYQVQEAYETLSDPDRRRQYDESIKG	-0.0285
HMGEVEVPDLVGIEAIQAKTLLFNSDFLIKEFYDYDPTQPIGVVIRQAPEAGTTQTIGDSVTITINRA	-0.334
HMGEVISRSYPLLKTKAKPAEVSEALQKLIKAPATVTFDEKNEVFHINATRLQHTWAEGYFKGLHGK	-0.14
HMGEVPPGWSVEALAAIERDLAHHVGPVARVLVQRGARLHTTTDDLRSALANAITDDLARRRFMQP	-0.575
HMGFEALRSRHRITAREMEVLQHMLAGRSNAEIGHTLGLSERTVKTHITSIFNKLGVDSRAQLGYMLK	-1.87
HMGFLTKTQRLEILLHLKDEPYYNVEKLKELIKNRYGIVYQSSQSYYDLLKEAGLSWHQTQA	-2.33
HMGFVTVTEVDTTADLKLARVYVSVLGPEEQWAKSFTALESARGFVWNWLRKHLDLRVTPQLAF	-1.08
HMGGASVTDQQIRDFVSAHTDDPMAIYKAAVANGISSARLAQVTGISIADIEAFVRKNNLPSF	-0.0535
HMGGEEINMINLVGLSQSEAENQLAKLKLKIGQVTAEYSDKPSGTVLKQSISANNKVKKGADIDIVVSKG	-0.0126
HMGGELLSLRRIGTLTGISYPTLLRYVARYGEQIPQTGTGRSRRFPPAAVPVFQELRATRGRAPRATA	-0.104
HMGGEPKALLFAGVETREMAEITQRLEAADIPYEIREDGGSIYVARSEVFNARMMLSADGLPS	-0.455
HMGGFNATTLQNIEELRRSLSDADQFGRHEVIETIGGSDSRAGKLLKKMLEAGIIEQVKGHGKGRYRFKRT	0.0983
HMGGGEYTVAKGDTLWKIAAQTLGSPTRYAEIYNLNKDVIEETARGRGKRDSSNGHWLFPGTALKIPGT	0.421
